Source: IntAct's records for PubMed 18772386

B1: Mpv17-like protein (Mus musculus), Q99MS3-1 (parent)
chain: MASWWRAFPQAARRYPWPTNVLLYAGLFSAGDALQQRLRGGPADWRQTRRVATLAVTFHGNFNYVWLRLLERALPGRAPRTVLAKVLCDQTVGGPIALSAFYVGMSVLQGKDDIFLDLKQKFWNTYKSGLMYWPFVQLTNFSLVPVHWRTAYTGLCAFLWATFLCFSQQSGDGTLQSIFIFLRRKEASDKSPEK
partner: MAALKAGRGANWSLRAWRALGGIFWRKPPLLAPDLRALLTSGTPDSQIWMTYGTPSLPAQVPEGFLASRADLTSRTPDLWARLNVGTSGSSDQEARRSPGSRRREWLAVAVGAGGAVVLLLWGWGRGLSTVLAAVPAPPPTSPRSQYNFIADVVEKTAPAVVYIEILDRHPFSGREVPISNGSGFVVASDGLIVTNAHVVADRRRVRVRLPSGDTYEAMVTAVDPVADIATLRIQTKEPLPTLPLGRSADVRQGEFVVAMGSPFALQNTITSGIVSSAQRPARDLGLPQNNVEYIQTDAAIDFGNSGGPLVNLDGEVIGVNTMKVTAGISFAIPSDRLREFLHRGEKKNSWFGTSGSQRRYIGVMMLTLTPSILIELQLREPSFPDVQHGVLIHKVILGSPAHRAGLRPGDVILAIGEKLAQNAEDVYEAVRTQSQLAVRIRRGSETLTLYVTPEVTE

Variants of: B1
Conditions: with htra2_mouse Htra2, Q9JIY5

Row | effect of a mutation on the interaction | Variant
1 | decreasing interaction | D112A;I114A
